For this data set, the system named is T1, piggyBac transposase (Trichoplusia ni).
T1 sequence: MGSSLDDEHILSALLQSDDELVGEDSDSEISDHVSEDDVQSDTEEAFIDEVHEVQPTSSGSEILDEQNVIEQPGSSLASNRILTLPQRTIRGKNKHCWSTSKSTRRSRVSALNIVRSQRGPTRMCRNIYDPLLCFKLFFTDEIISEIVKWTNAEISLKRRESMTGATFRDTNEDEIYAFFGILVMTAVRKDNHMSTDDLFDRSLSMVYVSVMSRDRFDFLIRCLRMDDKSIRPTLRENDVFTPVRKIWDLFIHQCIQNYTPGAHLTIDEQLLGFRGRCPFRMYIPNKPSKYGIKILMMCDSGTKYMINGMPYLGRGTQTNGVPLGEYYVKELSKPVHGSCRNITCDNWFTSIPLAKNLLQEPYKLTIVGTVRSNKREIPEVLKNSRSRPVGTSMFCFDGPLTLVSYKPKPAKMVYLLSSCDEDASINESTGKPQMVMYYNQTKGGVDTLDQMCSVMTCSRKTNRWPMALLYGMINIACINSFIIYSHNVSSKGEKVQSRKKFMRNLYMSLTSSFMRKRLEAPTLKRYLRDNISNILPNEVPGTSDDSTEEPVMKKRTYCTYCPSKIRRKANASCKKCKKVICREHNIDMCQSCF
In words: cell_activity. Particulars: RFP+ HEK-293 at 28 days.

In turn, “CCCTAGAAAGATAGTCTGCGTAAAATTGACGCATGCATGCGTCAATTTTACGCATGATTATCTTTAACGTACGTCACAATATGATTATCTTTCTAGGG (double strand)” registered an activity of 0.72%.
